Columns and labels:
human erythrocytes = experiment: RBD binding on freshly isolated human erythrocytes; conditions: freshly isolated red blood cells
Description: Binding assays. Binding assays were carried out as previously described [Manel, 2003]. Briefly, 5×10^5 cells (293T, HeLa, Jurkat or freshly isolated human erythrocytes) were incubated with 500 μl of H1RBD, H2RBD or ARBD supernatants for 30 min at 37° C., washed with PBA (1% BSA, 0.1% sodium azide in PBS), and incubated with a sheep anti-rabbit IgG antibody conjugated to fluorescein isothiocyanate (Sigma). […] Binding was analyzed on a FACSCalibur (Becton Dickinson) and data analysis was performed using CellQuest (Becton Dickinson) and WinMDI (Scripps) softwares.

murine erythrocytes = experiment: RBD binding on murine erythrocytes
[1] = test system: human primary hepatocytes; experiment: RBD binding on human primary hepatocytes
GLUT-3 = target: T1, GLUT-3 (Homo sapiens, UniProt P11169); experiment: RBD binding to cells overexpressing GLUT-3
T1 construct: factor Xa cleavage site + 2x HA + His (pCHIX cassette) (C); expressed in transfected cells; host or cells: 293T cells
T1 sequence (P11169 1-496): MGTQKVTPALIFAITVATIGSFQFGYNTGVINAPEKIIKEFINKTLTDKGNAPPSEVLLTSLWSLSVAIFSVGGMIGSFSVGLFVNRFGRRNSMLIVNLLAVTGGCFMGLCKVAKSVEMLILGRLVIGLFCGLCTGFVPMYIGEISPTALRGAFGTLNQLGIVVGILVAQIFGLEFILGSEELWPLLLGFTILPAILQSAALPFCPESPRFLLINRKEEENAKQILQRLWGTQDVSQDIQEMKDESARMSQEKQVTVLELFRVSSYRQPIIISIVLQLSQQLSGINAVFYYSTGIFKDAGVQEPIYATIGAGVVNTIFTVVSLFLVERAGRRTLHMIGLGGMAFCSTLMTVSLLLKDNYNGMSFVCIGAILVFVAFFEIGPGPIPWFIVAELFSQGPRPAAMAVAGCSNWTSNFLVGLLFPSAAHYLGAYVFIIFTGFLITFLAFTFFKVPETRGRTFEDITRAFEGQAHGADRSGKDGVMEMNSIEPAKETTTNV
Text: In order to directly test the ability of HTLV envelopes to bind GLUT-1, we derived a tagged GLUT-1 expression vector and overexpressed this protein in HeLa cells. […] GLUT-3 is the closest isoform to GLUT-1, and transports glucose with kinetics similar to that of GLUT-1. Thus, we derived a tagged GLUT-3 expression vector. […] To determine if GLUT-1 transfected cells were directly responsible for the observed increased in H1RBD binding, we derived fluorescent tagged GLUT-1 and GLUT-3 to uniquevocally identity GLUT-overexpressing cells in the course of our FACS analysis. […] Consequently, we tested if HTLV glycoproteins directly interact with GLUT-1 proteins. To this end, we evaluated the ability of H1RBD to immunoprecipitate GLUT-1. […] Therefore, the GLUT-1 glucose transporter is an essential component of the HTLV envelope receptor.
Expression vectors. Full length envelope expression vectors for HTLV-1 (pCEL/2[Denesvre, 1995]) and Friend ecotropic MLV (pCEL/F [Denesvre, 1995]), have been previously described. For the HTLV-2 envelope, a fragment from pHTE2 [Rosenberg, 1998] encompassing the tax, rex and env genes and the 3′ LTR was inserted in the pCSI [Battini, 1999] vector (pCSIX.H2). […]
Binding assays. […] Binding was analyzed on a FACSCalibur (Becton Dickinson) and data analysis was performed using CellQuest (Becton Dickinson) and WinMDI (Scripps) softwares.

293T cells [2] = experiment: Glucose consumption of transfected cells; type: cell-based, human; conditions: normalized to cellular protein content
Description: Envelope expression and metabolic measurements. 293T cells were transfected with the various envelope expression vectors using a modified version of the calcium phosphate method. After an overnight transfection, cells were washed in phosphate-buffered saline (PBS) and fresh medium was added. Media were harvested at the indicated time points, filtered through a 0.45-μm pore-size filter, and lactate and glucose were measured with enzymatic diagnostic kits (Sigma). Values were normalized to cellular protein content using the Bradford assay (Sigma) after solubilization of cells in lysis buffer (50 mM Tris-HCl pH 8.0, 150 mM NaCl, 0.1% sodium dodecyl sulfate, 1.0% Nonidet P-40, 0.5% deoxycholate) and clarification by centrifugation.

293T cells [3] = experiment: Hexose uptake assay: fructose; type: cell-based, human; conditions: transfected 293T cells
Description: Assay of hexose uptake. 2-deoxy-D[1-^3H]glucose, D[U-^14C]fructose and 3-O-[^14C]methyl-D-glucose were obtained from Amersham. Hexose uptake assay were adapted from Harrison et al. 1991). After transfection, approximately 250,000 were seeded/well in 24-well plates. […] Uptake was initiated by adding labeled hexoses to a final concentration of 0.1 mM (2 μCi/ml for 2-2-deoxy-D[1-^3H]glucose and 0.2 μCi/ml for D[U-^14C]fructose and 3-O-[^14C]methyl-D-glucose) and cells were incubated for 5′ additional minutes. Cells were then resuspended in 500 μl cold serum-free glucose-free DMEM, wash one time in serum-free glucose-free DMEM, and solubilized in 400 μl of 0.1% SDS. 3 μl was used for Bradford normalization, while the rest was used for detection of either ^3H or ^14C by liquid scintillation in a Beckman counter.

PiT2 = experiment: RBD binding to cells overexpressing PiT2

B1: H1RBD: first 215 residues of HTLV-1 SU fused to a C-terminal rabbit IgG Fc tag (rFc) (protein)
chain: DYSPSCCTLTIGVSSYHSKPCNPAQPVCSWTLDLLALSADQALQPPCPNLVSYSSYHATYSLYLFPHWIKKPNRNGGGYYSASYSDPCSLKCPYLGCQSWTCPYTGAVSSPYWKFQQDVNFTQEVSRLNINLHFSKCGFPFSLLVDAPGYDPIWFLNTEPSQLPPTAPPLLPHSNLDHILEPSIPWKSKLLTLVQVDVPRDCGCKPCICTVPEVSSVFIFPPKPKDVLTITLTPKVTCVVVDISKDDPEVQFSWFVDDVEVHTAQTQPREEQFNSTFRSVSELPIMHQDWLNGKEFKCRVNSAAFPAPIEKTISKTKGRPKAPQVYTIPPPKEQMAKDKVSLTCMITDFFPEDITVEWQWNGQPAENYKNTQPIMDTDGSYFVYSKLNVQKSNWEAGNTFTCSVLHEGLHNHHTEKSLSHSPGK
Human erythrocytes
  binding on human erythrocytes: strikingly efficient
Murine erythrocytes
  binding on murine erythrocytes: no significant H1RBD binding could be detected
[1]
  binding to human primary hepatocytes: unable to detect H1RBD binding
GLUT-3; 293T cells, tagged GLUT-3
  binding upon GLUT-3 overexpression: did not induce any increase
GLUT-3; fluorescent tagged GLUT-3, FACS analysis
  H1RBD binding to cells overexpressing GLUT-3-DsRed2: no effect
293T cells [2]
  Glucose consumption compared to control cells: significantly decreased
293T cells [3]
  Fructose uptake: not altered
PiT2
  binding upon overexpression of PiT2: remained at background levels
